Values quoted from earlier work, collected in PMC7830601.
Like-named read-outs stand apart in the source and are kept apart here.

Key:
AIM2 HIN (Homo sapiens) = AIM2 HIN (Homo sapiens) (UniProt O14862); assay: ITC
ASC PYD (Homo sapiens) [1] = molecular target: ASC PYD (Homo sapiens) (UniProt Q9ULZ3)
ASC PYD (Homo sapiens) [2] = molecular target: ASC PYD (Homo sapiens) (UniProt Q9ULZ3); remark: listed apart in the source
ASC CARD (Homo sapiens) = ASC CARD (Homo sapiens) (UniProt Q9ULZ3); assay: NMR

AIM2 PYD (from UniProt O14862)
Kd (AIM2 HIN (Homo sapiens)): 23.5 µM

ASC2 (from UniProt Q8WXC3)
Kd (ASC PYD (Homo sapiens) [1]): 4.08 µM | Kd (ASC PYD (Homo sapiens) [2]): 3.81 µM

ASC CARD (from UniProt Q9ULZ3)
Kd (ASC CARD (Homo sapiens)): 50 µM
